Tests used:
[1] = biological target: T1, SARS-COV-2 RBD extracellular domain expressed with a C-terminal mouse IgG2a Fc (SARS-CoV-2); test: Biacore SPR, mAb captured on anti-hFc, 37 C
[2] = biological target: T1, SARS-COV-2 RBD extracellular domain …; test: Biacore SPR, mAb captured on anti-hFc, 25 C

Row | Binder | Kd [1] [nM] | koff [1] [s⁻¹] | kon [1] [M⁻¹ s⁻¹] | t½ [1] [h] | Kd [2] [nM] | koff [2] [s⁻¹] | kon [2] [M⁻¹ s⁻¹] | t½ [2] [h]
1 | mAb15170 (antibody, V domains shown) VH: EVQLVESGGGLVQPGGSLRLSCAATGITVSSNYMSWVRQAPGKGLEWVSLIYSGGSTFYADSVKGRFTISRHNSKNTLYLQMSSLRAEDTAVYYCARDLVDFGMDVWGQGTTVTVSS VL: DIQLTQSPSSLSASVGDRVTITCRASQGISNYLAWYQQKPGKAPKLLIYAASTLQSGVPSRFSGSGSGTDFTLTISSLQPEDFGTYYCQQLNSDSPTFGQGTKVEIKR | 0.091 | 2.41e-05 | 260000 | 8 | ≤ 0.0295 | ≤ 1e-05 | 339000 | 19.2
2 | mAb15151 (antibody, V domains shown) VH: QVQLVESGGGVVQPGRSLRLSCAASGFVFNSYGMHWVRQAPGKGLEWVAVLWYEGSKNYYADSVKGRFTISRDNSKNTLYLQMNSLRAEDTAVYYCARHGSGSFFGYYLDYWGQGTLVTVSS VL: DIQMTQSPSSLSASVGDRVTITCRASHNINDFLNWYQQKPGKAPRLLIYAASSLQSGVPSRFSGSGSGTDFTLTISSLQPEDFATYYCQESYTTPPTFGQGTKLEIKR | 0.85 | 0.0031 | 3.7e+06 | 0.0617 | 0.00338 | 3.12e-05 | 9.24e+06 | 6.16
3 | mAb15164 (antibody, V domains shown) VH: EVQLVESGGGLVQPGGSLRLSCAASGFAVSSNYMTWVRQAPGKGLEWVATIYSGDSTYYADSVKGRFTISRHNSKNTLSLQMNSLRADDTAIYYCARLSGVLSGTYNGAFDIWGQGTMVTVSS VL: QSALTQPASVSGSPGQSITISCTGTSSDFGNYNIVSWYQQHPGQAPKVMIYEGNKRPSGVSNRFSGSKSGHTASLTISGLQAEDEADYYCSSYAGSSTWVFGGGTKLTVLG | 0.0518 | 9.4e-05 | 1.82e+06 | 2.05 | 0.0569 | 2.12e-05 | 372000 | 9.09
4 | mAb15165 (antibody, V domains shown) VH: EVQLVESGGGLVQPGGSLRLSCAASGFTVSSNYMSWVRQAPGKGLEWVSAIYSGDSTYYADSVKGRFTISKDNSKNTLYLQMNSLRGEDTAVYYCARLGGALQAYDGAFDYWGQGTLATVSS VL: QSALTQPASVSGSPGQSITISCTGTSSDFGSYNLVSWYQQHPGKAPKLMIYEGNKRPSGVSIRFSGSKSGNTASLTISGLQAEDEADYYCSSYAGSSTWVFGGGTKLTVLG | 0.45 | 4.55e-05 | 100000 | 4.23 | 0.129 |  | 301000 | 4.96
5 | mAb15166 (antibody, V domains shown) VH: EVQLVESGGGLVQPGGSLRLSCAASGFTVTSNYMSWVRQAPGKGLEWVSAIYSGESTYYADSVKGRFTISRDSSKNTLYLQMNSLRVEDTAVYYCASIHDYSNYVGGFDPWGQGTLVTVSS VL: QSALTQPASVSGSPGQSITISCTGPSSDFGSYNLVSWYQQHPGKAPKLMIYEGTKRPSGVSNRFSGSKSGNTASLTISGLQAEDEADYYCSSYAGSSTWVFGGGTKLTVLG | 0.126 | 9.8e-05 | 781000 | 1.97 | 0.016 | 1.62e-05 | 1.02e+06 | 11.9
6 | mAb15163 (antibody, V domains shown) VH: EVQLVETGGGLIQPGESLRLSCAASGFIVSTNYMNWVRQAPGKGLEWVSVIYRGGSTYYADSVKGRFTISRDNSKNTLFLQMNSLRAEDTAVYYCARGHEDFDYDTPASGAFDIWGQGTMVTVSS VL: QSALTQPPSASGSPGQSVTISCTGTSSDVGGHNYVSWYQQHPGKAPKVMIYEVSKRPSGVPDRFSGSKSGNTASLTVSGLQAEDEADYYCSSYAGSNKFVFGTGTKVTVLG | 0.0601 | 2.5e-05 | 416000 | 7.7 | ≤ 0.0108 | ≤ 1e-05 | 930000 | 19.2
7 | mAb15162 (antibody, V domains shown) VH: EVQLVETGGGLIQPGGSLRLSCAASEFIVSRNYMSWVRQAPGKGLEWVSLIYSGGSTYYADSVKGRFTISRDNSKNILYLQMNSLRAEDTAVYYCARDRGGISDYWGQGTLVTVSS VL: DIQMTQSPSSLSASVGDRVTITCQASQDINKYLNWFQQKPGKAPKLLIYDASNLETGVPSRFSGSGSGTDFTFTISSLQPEDIATYYCQQYDNLPRTFGQGTKLEIKR | 0.5 | 0.000101 | 200000 | 1.91 | 0.179 | 0.00023 | 1.29e+06 | 0.837

— US20260069689A1 (Regeneron, published 2026)
